Here are results for 1 molecule from patent US20220251167A1 (published 2022).

This assay addresses T1, DNAJB1-PRKACA fusion protein peptide on HLA-A*68:02 (human).
T1 peptide: EIFDRYGEEV
As to the kind of experiment: multimer staining. From the text: Jurkat cells were engineered to express the FLC-P8R-4 TCR.

B1: P9R-4 (TCR)
alpha TRAV16*01 TRAJ4*01 CDR3: CALDMFSGGYNKLIF
beta TRBV15*01 TRBJ2-7*01 CDR3: CATSRVKTSGGYEQYF
On to B1, for which the binding result was “recognises”.
